According to patent publication US20260116920A1 (PEPTIDREAM, published 2026):
Starred links: 1 amine or outer side, 2 acyl side, 3 side chain; linkers in the order of their positions; H or OH if unused. Positions of bridges follow the written chain, without caps; N, C: chain ends. Non-standard residues stand in square brackets, D forms with d. Primed or numbered codes have the meaning given here. No end group written: not given here. *: point of attachment. E(PEG8Me) = (S)-30-amino-27-oxo-2,5,8,11,14,17,20,23-octaoxa-26-azahentriacontane-31-oic acid, COCCOCCOCCOCCOCCOCCOCCOCCNC(=O)CC[C@H](N[*:1])C(=O)[*:2]; E(PEG4Me) = (S)-18-amino-15-oxo-2,5,8,11-tetraoxa-14-azanonadecane-19-oic acid, COCCOCCOCCOCCNC(=O)CC[C@H](N[*:1])C(=O)[*:2]; Phe(4-OMe)(3) = (S)-2-amino-3-(4-methoxyphenyl)propanoic acid (source code F4OMe), COc1ccc(C[C@H](N[*:1])C(=O)[*:2])cc1; F4aao = (S)-2-amino-3-(4-(carboxymethoxy)phenyl)propanoic acid, O=C([C@H](Cc1ccc(OCC(=O)[*:3])cc1)N[*:1])[*:2]; Phe(4-OMe) = F4OMe = (S)-2-amino-3-(4-methoxyphenyl)propanoic acid, COc1ccc(C[C@H](N[*:1])C(=O)[*:2])cc1; E(NHdPEG1Me) = N5-(1,3-dimethoxypropan-2-yl)-L-glutamine, COCC(COC)NC(=O)CC[C@H](N[*:1])C(=O)[*:2]; Trp(1-CH2CO) = O=C([C@H](Cc1cn(CC(=O)[*:3])c2ccccc12)N[*:1])[*:2]; Nle(6-morpholino) = N[C@@H](CCCCN1CCOCC1)C(=O)O; Phe(3-COOH) = N[C@@H](Cc1cccc(C(=O)O)c1)C(=O)O; Trp(7-aza) = N[C@@H](Cc1c[nH]c2ncccc12)C(=O)O; NH(CH2CH2O)8Me = COCCOCCOCCOCCOCCOCCOCCOCCN*; NMePhe(3-Cl) = CN[C@@H](Cc1cccc(Cl)c1)C(=O)O; 3Pal(6-NH2) = Nc1ccc(C[C@H](N)C(=O)O)cn1; NMeY = CN[C@@H](Cc1ccc(O)cc1)C(=O)O; NMeF = CN[C@@H](Cc1ccccc1)C(=O)O; 3Pal = N[C@@H](Cc1cccnc1)C(=O)O; 4Pal = N[C@@H](Cc1ccncc1)C(=O)O

B1: 894_0372 (peptide)
peptide: {CH2CO}-AV[NMePhe(3-Cl)]VWNY[F4aao]IIR[E(PEG8Me)][Phe(3-COOH)]YC-NH2
modifications: thioether N-15; not fully specified (residue 14); also: linker PEG4c, place not given here
B2: 894_0373 (peptide)
peptide: {CH2CO}-AV[NMePhe(3-Cl)]VWNY[F4aao]IIR[E(PEG8Me)][4Pal]YC-NH2
modifications: thioether N-15; not fully specified (residue 14); also: linker PEG4c, place not given here
B3: 894_0374 (peptide)
peptide: {CH2CO}-AV[NMePhe(3-Cl)]VWN[3Pal(6-NH2)][3Pal]IIR[E(PEG8Me)][Phe(3-COOH)]YC-NH2
modifications: thioether N-15; not fully specified (residue 14); also: linker PEG4c, place not given here
B4: 894_0375 (peptide)
peptide: {CH2CO}-AV[NMePhe(3-Cl)]VWN[3Pal(6-NH2)][3Pal]IIR[E(PEG8Me)][4Pal]YC-NH2
modifications: thioether N-15; not fully specified (residue 14); also: linker PEG4c, place not given here

Target: T1, human transferrin receptor (hTfR) (human, UniProt P02786 89-760)
T1 construct: used as 0.5 uM hTfR dimer solution, immobilised on an NTA sensor chip (Ni capture plus EDC/NHS coupling); also called human TfR; TfR1
T1 sequence (P02786 89-760 limits assumed): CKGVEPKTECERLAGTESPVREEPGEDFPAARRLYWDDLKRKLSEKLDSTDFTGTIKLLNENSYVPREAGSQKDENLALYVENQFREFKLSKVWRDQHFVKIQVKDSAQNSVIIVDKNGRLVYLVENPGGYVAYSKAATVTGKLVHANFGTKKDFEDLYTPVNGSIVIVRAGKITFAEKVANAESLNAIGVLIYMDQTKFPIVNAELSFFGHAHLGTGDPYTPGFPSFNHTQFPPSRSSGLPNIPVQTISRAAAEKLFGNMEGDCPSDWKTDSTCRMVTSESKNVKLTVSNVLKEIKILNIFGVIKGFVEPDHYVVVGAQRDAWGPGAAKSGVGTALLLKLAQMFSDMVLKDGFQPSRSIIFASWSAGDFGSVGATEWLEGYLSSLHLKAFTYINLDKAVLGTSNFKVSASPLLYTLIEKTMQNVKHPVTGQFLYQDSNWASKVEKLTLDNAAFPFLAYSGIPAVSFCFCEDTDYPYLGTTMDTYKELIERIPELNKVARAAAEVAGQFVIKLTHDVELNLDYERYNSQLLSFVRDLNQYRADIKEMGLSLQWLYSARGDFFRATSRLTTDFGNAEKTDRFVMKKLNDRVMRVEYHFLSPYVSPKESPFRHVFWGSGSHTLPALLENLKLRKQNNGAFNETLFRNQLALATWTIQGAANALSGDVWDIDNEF
Experiment: SPR; B = KD 1-100 nM
Procedure, shortened: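 Recombinant hTfR dimer immobilised on Ni-NTA chip with EDC/NHS coupling; running buffer 10 mM HEPES pH 8.0, 150 mM NaCl, 0.05% Tween 20, 0.1% BSA, 1.0% DMSO. Peptides injected at 5–100 nM in single-cycle kinetics; KD from least-squares sensorgram fitting.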

Binder | KD [nM]
Ac-AV[NMePhe(3-Cl)]V[Trp(1-CH2CO)]N[3Pal(6-NH2)][F4aao]IIRR[4Pal][NMeY]C (thioether (positions not given here); not fully specified (C-terminus, bridges)) [894_0348] | 1 to 100
Ac-AV[NMePhe(3-Cl)]V[Trp(1-CH2CO)]N[3Pal(6-NH2)][F4aao]IIRR[Phe(3-COOH)][NMeY]C (thioether (positions not given here); not fully specified (C-terminus, bridges)) [894_0349] | 1 to 100
Ac-AV[NMePhe(3-Cl)]V[Trp(1-CH2CO)]NY[F4aao]IIRE(NH(CH2CH2O)8Me)[4Pal][NMeY]C (thioether (positions not given here); not fully specified (C-terminus, bridges)) [894_0350] | 1 to 100
{CH2CO}-AV[NMePhe(3-Cl)]V[Trp(1-CH2CO)]NY[3Pal]IIRE(NH(CH2CH2O)8Me)[4Pal][NMeY]C-NH2 (thioether N-15; also: linker PEG4c) [894_0351] | 1 to 100
{CH2CO}-AV[NMePhe(3-Cl)]V[Trp(1-CH2CO)]NY[3Pal]IIRE(NH(CH2CH2O)8Me)[Phe(3-COOH)][NMeY]C-NH2 (thioether N-15; also: linker PEG4c) [894_0352] | 1 to 100
{CH2CO}-AV[NMePhe(3-Cl)]VWNY[F4aao]IIRE(NH(CH2CH2O)8Me)F[NMeY]C (thioether N-15; not fully specified (C-terminus)) [894_0362] | 1 to 100
{CH2CO}-AV[NMePhe(3-Cl)]VWNY[Phe(4-OMe)]IIRE(NH(CH2CH2O)8Me)[Phe(3-COOH)][NMeY]C-NH2 (thioether N-15; also: linker PEG4c) [894_0365] | 1 to 100
{CH2CO}-AV[NMePhe(3-Cl)]VWN[3Pal(6-NH2)][F4aao]IIRR[Phe(3-COOH)][NMeY]C (thioether N-15; not fully specified (C-terminus)) [894_0368] | 1 to 100
{CH2CO}-AV[NMePhe(3-Cl)]VWN[3Pal(6-NH2)][F4aao]IIRR[4Pal][NMeY]C-NH2 (thioether N-15; also: linker PEG4c) [894_0369] | 1 to 100
{CH2CO}-AV[NMePhe(3-Cl)]VWNY[3Pal]IIRE(NH(CH2CH2O)8Me)[Phe(3-COOH)][NMeY]C-NH2 (thioether N-15; also: linker PEG4c) [894_0370] | 1 to 100
{CH2CO}-AV[NMePhe(3-Cl)]VWNY[3Pal]IIRE(NH(CH2CH2O)8Me)[4Pal][NMeY]C-NH2 (thioether N-15; also: linker PEG4c) [894_0371] | 1 to 100
B1 | 1 to 100
B2 | 1 to 100
B3 | 1 to 100
B4 | 1 to 100
{CH2CO}-AV[NMePhe(3-Cl)]VWN[3Pal(6-NH2)][F4aao]IIR[E(PEG8Me)][Phe(3-COOH)][NMeY]C-NH2 (thioether N-15; also: linker PEG4c, place not given here) [894_0376] | 1 to 100

Binder | KD [nM]
{CH2CO}-AV[NMePhe(3-Cl)]VWN[3Pal(6-NH2)][F4aao]IIR[E(PEG8Me)][4Pal][NMeY]C-NH2 (thioether N-15; also: linker PEG4c, place not given here) [894_0377] | 1 to 100
{CH2CO}-AV[NMeF]VWNYYIIRRY[NMeY]C-NH2 (thioether N-15; also: linker G-de-de-de-S-S-C(AcNMe), place not given here) [894_0393] | 1 to 100
{CH2CO}-AV[NMeF]VWNYYIIRRY[NMeY]C-NH2 (thioether N-15; also: linker G-de-de-de-de-de-C(AcNMe), place not given here) [894_0394] | 1 to 100
{CH2CO}-AV[NMePhe(3-Cl)]V[Trp(1-CH2CO)]NY[F4aao]II[E(PEG4Me)]RF[NMeY]C-NH2 (thioether N-15; also: linker PEG4c, place not given here) [894_0395] | 1 to 100
{CH2CO}-AV[NMePhe(3-Cl)]V[Trp(1-CH2CO)]NY[F4aao]II[E(NHdPEG1Me)]RF[NMeY]C-NH2 (thioether N-15; also: linker PEG4c, place not given here) [894_0396] | 1 to 100
{CH2CO}-AV[NMePhe(3-Cl)]V[Trp(1-CH2CO)]NY[F4aao]IIQR[4Pal][NMeY]C-NH2 (thioether N-15; also: linker PEG4c, place not given here) [894_0419] | 1 to 100
{CH2CO}-AV[NMePhe(3-Cl)]V[Trp(1-CH2CO)]NY[F4aao]IIQ[Nle(6-morpholino)][4Pal][NMeY]C-NH2 (thioether N-15; also: linker PEG4c, attachment not given here) [894_0420] | 1 to 100
{CH2CO}-AV[NMePhe(3-Cl)]V[Trp(1-CH2CO)]NY[F4aao]IIQR[Phe(3-COOH)][NMeY]C-NH2 (thioether N-15; also: linker PEG4c, attachment not given here) [894_0421] | 1 to 100
{CH2CO}-AV[NMePhe(3-Cl)]V[Trp(7-aza)]NY[F4aao]IIQR[4Pal][NMeY]C-NH2 (thioether N-15; also: linker PEG4c, attachment not given here) [894_0424] | 1 to 100
{CH2CO}-AV[NMePhe(3-Cl)]V[Trp(7-aza)]NY[F4aao]IIQ[Nle(6-morpholino)][4Pal][NMeY]C-NH2 (thioether N-15; also: linker PEG4c, attachment not given here) [894_0425] | 1 to 100
{CH2CO}-AV[NMePhe(3-Cl)]V[Trp(7-aza)]NY[F4aao]II[E(PEG8Me)][Nle(6-morpholino)][4Pal][NMeY]C-NH2 (thioether N-15; also: linker PEG4c, attachment not given here) [894_0426] | 1 to 100
{CH2CO}-AV[NMePhe(3-Cl)]V[Trp(7-aza)]NY[F4aao]IIQ[Nle(6-morpholino)][Phe(3-COOH)][NMeY]C-NH2 (thioether N-15; also: linker PEG4c, attachment not given here) [894_0428] | 1 to 100
{CH2CO}-AV[NMePhe(3-Cl)]VWNY[Phe(4-OMe)(3)]IIKRF[NMeY]C (thioether N-15; not fully specified (C-terminus)) [894_3150] | 1 to 100
{CH2CO}-AV[NMeF]VWNY[F4aao]IIRRY[NMeY]C-NH2 (thioether N-15; also: linker G-de-de-de-ds-ds-KN3, attachment not given here) [894_3169] | 1 to 100
{CH2CO}-AV[NMeF]V[Trp(1-CH2CO)]NY[F4aao]IIRRY[NMeY]C-NH2 (thioether N-15; also: linker G-de-de-de-ds-ds-KN3, attachment not given here) [894_3170] | 1 to 100
